Measurements taken from article PMC9943673.

What was measured:
[1] = biological target: TRF2-pS410 peptide labelled at the N-terminus with carboxyfluorescein (FAM) (human); assay: fluorescence polarisation; fluorescence anisotropy; 3 nM FAM-peptide titrated with TIN2 to 500 nM; 50 mM NaCl, 50 mM phosphate buffer pH 7.0, 25 C
[2] = biological target: TRF2-CTRL peptide labelled at the N-terminus with carboxyfluorescein (FAM) (human); assay: as above
TIN2 = TIN2 (UniProt Q9BSI4); assay: biotin-peptide pull-down from nuclear extract, MS; conditions: reference: unphosphorylated peptide (TRF2-CTRL); sites S410

Sequence of TRF2-CTRL peptide labelled at the N-terminus with carboxyfluorescein (FAM) (human) (Q15554 401-420): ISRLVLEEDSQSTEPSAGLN

| Substance | Kd [1] | Kd [2] | binding against the reference (TIN2) |
| --- | --- | --- | --- |
| purified human TIN2 (from UniProt Q9BSI4 1-451) (natural protein) | 180 nM | 240 nM | – |
| TRF2 (from UniProt Q15554) pS410 peptide | – | – | stronger |
